Article PMC3932411

Tests used:
[1] = I-V relationship; conditions: glycan lost; control: untreated WT (DMSO)
[2] = whole-cell patch clamp, +100 mV; conditions: glycan lost; control: untreated WT (DMSO)
[3] = I-V relationship, plateau phase; conditions: glycan lost; control: wild type
[4] = cell surface biotinylation, Western blot; conditions: glycan lost; control: wild type

Substance	other: channel voltage dependence [1]	other: channel deactivation kinetics, other: deactivation slope [2]	other: channel voltage dependence [3]	localisation_or_trafficking [4]
TRPM4 (TRPM4b): tunicamycin (10 μg/ml; 19 h)	no change	no change, 5265 ± 572 vs 4855 ± 379		
TRPM4 (TRPM4b): N992Q			no change	no change
